Test results from the supplement of paper PMC10567573.

B1: GLT8D2 (parent)
chain: QEAKLLHWNGRHKPWDFPSVHNDL

Variants of: B1
Assay: protein stability index of a GFP-peptide fusion (GPS, HEK-293T) (PSI 1-6); higher = more stable
Conditions: c terminus: a fixed tail appended
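Note: lentivirally expressed fusions sorted by FACS into six bins by GFP to DsRed ratio, PSI derived from sequencing read proportions per bin multiplied by bin number.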

Compared with QEAKLLHWNGRHKSWDFPSVHNDL, QEAKLLHWNGRHKGWDFPSVHNDL is higher in protein stability index: 2.68 for the first, 2.87 for the second.

First: QEAKLLHWNGRHKTWDFPSVHNDL
Second: QEAKLLHWNGRHKFWDFPSVHNDL
The protein stability index of the first is higher: 2.52 for the first, 2.45 for the second.

Compared with QEAKLLHWNGRHKRWDFPSVHNDL, QEAKLLHWNGRHKPWDFPSVCNDL is lower in protein stability index: 2.56 for the first, 2.48 for the second.

First: QEAKLLHWNGRHKPWDFPSVMNDL
Second: QEAKLLHWNGRHKPWDFPSVPNDL
The protein stability index of the first is higher: 3.05 for the first, 2.41 for the second.

First: QEAKLLHWNGRHKPWDFPSVRNDL
Second: QEAKLLHWNGRHKPWDFPSVKNDL
The protein stability index of the first is higher: 3 for the first, 2.75 for the second.

Going from QEAKLLHWNGRHKPWDFPSVGNDL to QEAKLLHWTGRHKPWDFPSVHNDL, the protein stability index falls from 3.09 to 2.59.

Compared with QEAKLLHWVGRHKPWDFPSVHNDL, QEAKLLHWWGRHKPWDFPSVHNDL is lower in protein stability index: 2.25 for the first, 1.75 for the second.

First: QEAKLLHWHGRHKPWDFPSVHNDL
Second: QEAKLLHWYGRHKPWDFPSVHNDL
The protein stability index of the first is higher: 2.73 for the first, 2.33 for the second.

Going from QEAKLLHWNGRHKPWDTPSVHNDL to QEAKLLHWNGRHKPWDKPSVHNDL, the protein stability index falls from 3.17 to 3.16.

Compared with QEAKLLHWNGRHKPWDLPSVHNDL, QEAKLLHWNGRHKPWDVPSVHNDL is higher in protein stability index: 3.05 for the first, 3.18 for the second.

First: QEAKLLHWNGRHKPWDSPSVHNDL
Second: QEAKLLHWNGRHKPWDGPSVHNDL
The protein stability index of the first is higher: 3.96 for the first, 3.15 for the second.

First: KEAKLLHWNGRHKPWDFPSVHNDL
Second: MEAKLLHWNGRHKPWDFPSVHNDL
The protein stability index of the first is higher: 2.49 for the first, 2.35 for the second.

Compared with IEAKLLHWNGRHKPWDFPSVHNDL, GEAKLLHWNGRHKPWDFPSVHNDL is higher in protein stability index: 1.69 for the first, 2.65 for the second.

Going from EEAKLLHWNGRHKPWDFPSVHNDL to HEAKLLHWNGRHKPWDFPSVHNDL, the protein stability index falls from 3.02 to 2.35.

First: QEAKLLHWNGRHKPWSFPSVHNDL
Second: QEAKLLHWNGRHKPWYFPSVHNDL
The protein stability index of the first is higher: 2.46 for the first, 1.87 for the second.

First: QEAKLLHWNGRHKPWPFPSVHNDL
Second: QEAKLLHWNGRHKPWRFPSVHNDL
The protein stability index of the first is higher: 2.46 for the first, 2.33 for the second.

First: QEAKLLHWNGRHKPWCFPSVHNDL
Second: QEAKLLHWNGRHKPWVFPSVHNDL
The protein stability index of the first is lower: 1.55 for the first, 2.12 for the second.

First: QEAKLLHWNGRHKPWIFPSVHNDL
Second: QEAKLLHWNGRHKPWDFPSVHCDL
The protein stability index of the first is higher: 2.37 for the first, 2.11 for the second.

Compared with QEAKLLHWNGRHKPWDFPSVHWDL, QEAKLLHWNGRHKPWDFPSVHRDL is higher in protein stability index: 2.08 for the first, 2.35 for the second.

First: QEAKLLHWNGRHKPWDFPSVHMDL
Second: QEAKLLHWNGRHKPWDFPSVHYDL
The protein stability index of the first is higher: 2.01 for the first, 1.91 for the second.

First: QEAKLLHWNGRHKPWDFPSVHSDL
Second: QEAKLLHINGRHKPWDFPSVHNDL
The protein stability index of the first is lower: 2.33 for the first, 2.9 for the second.

Compared with QEAKLLHLNGRHKPWDFPSVHNDL, QEAKLLHSNGRHKPWDFPSVHNDL is higher in protein stability index: 3.24 for the first, 3.47 for the second.

Compared with QEAKLLHTNGRHKPWDFPSVHNDL, QEAKLLHPNGRHKPWDFPSVHNDL is lower in protein stability index: 3.23 for the first, 2.63 for the second.

Compared with QEAKLLHYNGRHKPWDFPSVHNDL, QEAKLLHNNGRHKPWDFPSVHNDL is higher in protein stability index: 2.42 for the first, 3.46 for the second.

First: QEAKLLHWNGRHKPWDFPSVHNDN
Second: QEAKLLHWNGRHKPWDFPSVHNDY
The protein stability index of the first is higher: 3.25 for the first, 2.98 for the second.

First: QEAKLLHWNGRHKPWDFPSVHNDQ
Second: QEAKLLHWNGRHKPWDFPSVHNDF
The protein stability index of the first is higher: 3.5 for the first, 2.14 for the second.

Going from QEAKLLHWNGRHKPWDFPSVHNDD to QEAKLLHWNGRHKPWDFPSVHNDP, the protein stability index falls from 3.75 to 2.85.

First: QEAKLLHWNGRHKPWDFPSFHNDL
Second: QEAKLLHWNGRHKPWDFPSHHNDL
The protein stability index of the first is lower: 2.53 for the first, 2.77 for the second.

First: QEAKLLHWNGRHKPWDFPSGHNDL
Second: QEAKLLHWNGRHKPWDFPSAHNDL
The protein stability index of the first is lower: 2.84 for the first, 2.97 for the second.

Going from QEAKLLHWNGRHKPWDFPSDHNDL to QEAKLLHWNGRHKPWDFPSPHNDL, the protein stability index falls from 3.53 to 2.81.

Going from QEAKLAHWNGRHKPWDFPSVHNDL to QEAKLRHWNGRHKPWDFPSVHNDL, the protein stability index falls from 2.87 to 2.85.

Compared with QEAKLGHWNGRHKPWDFPSVHNDL, QEAKLYHWNGRHKPWDFPSVHNDL is lower in protein stability index: 2.89 for the first, 2.56 for the second.

First: QEAKLFHWNGRHKPWDFPSVHNDL
Second: QEAKLDHWNGRHKPWDFPSVHNDL
The protein stability index of the first is higher: 2.83 for the first, 2.79 for the second.

Compared with QEAKLIHWNGRHKPWDFPSVHNDL, QEAKLNHWNGRHKPWDFPSVHNDL is higher in protein stability index: 2.67 for the first, 2.71 for the second.

First: QEAKLHHWNGRHKPWDFPSVHNDL
Second: QEAKLTHWNGRHKPWDFPSVHNDL
The protein stability index of the first is lower: 2.62 for the first, 2.68 for the second.

First: QEAKLLHWNGRHKPHDFPSVHNDL
Second: QEAKLLHWNGRHKPCDFPSVHNDL
The protein stability index of the first is lower: 3.17 for the first, 3.22 for the second.

Compared with QEAKLLHWNGRHKPDDFPSVHNDL, QEAKLLHWNGRHKPLDFPSVHNDL is lower in protein stability index: 3.59 for the first, 2.87 for the second.

Going from QEAKLLHWNGRHKPSDFPSVHNDL to QEAKLLHWNGRHKPADFPSVHNDL, the protein stability index rises from 3.52 to 3.7.

Going from QEAKLLHWNGRHKPMDFPSVHNDL to QEAKLLHWNGRHKPTDFPSVHNDL, the protein stability index falls from 3.48 to 3.3.

Going from QEAKLLHWNGRHKPWDFESVHNDL to QEAKLLHWNGRHKPWDFGSVHNDL, the protein stability index falls from 2.98 to 2.32.

Compared with QEAKLLHWNGRHKPWDFCSVHNDL, QEAKLLHWNGRHKPWDFVSVHNDL is higher in protein stability index: 2.6 for the first, 2.82 for the second.

Going from QEAKLLHWNGRHKPWDFDSVHNDL to QEAKLLHWNGRHKPWDFSSVHNDL, the protein stability index falls from 3.06 to 2.59.

Going from QEAKQLHWNGRHKPWDFPSVHNDL to QEAKGLHWNGRHKPWDFPSVHNDL, the protein stability index rises from 2.83 to 3.26.

Compared with QEAKDLHWNGRHKPWDFPSVHNDL, QEAKYLHWNGRHKPWDFPSVHNDL is lower in protein stability index: 3.3 for the first, 2.45 for the second.

Going from QEAKMLHWNGRHKPWDFPSVHNDL to QEAKFLHWNGRHKPWDFPSVHNDL, the protein stability index falls from 2.94 to 2.51.

Going from QEAKHLHWNGRHKPWDFPSVHNDL to QEHKLLHWNGRHKPWDFPSVHNDL, the protein stability index rises from 2.67 to 2.83.

First: QESKLLHWNGRHKPWDFPSVHNDL
Second: QEDKLLHWNGRHKPWDFPSVHNDL
The protein stability index of the first is lower: 2.69 for the first, 3.47 for the second.
